We go through one protein from paper doi:10.1101/2021.06.06.447285 (bioRxiv, 2021).

This data set deals with the molecule itself. The data set is described as follows: native gel or EMSA + other: dynamic light scattering + other: negative-stain TEM.

B1: Encapsulin from Thermotoga maritima (natural protein)
chain: MEFLKRSFAPLTEKQWQEIDNRAREIFKTQLYGRKFVDVEGPYGWEYAAHPLGEVEVLSDENEVVKWGLRKSLPLIELRATFTLDLWELDNLERGKPNVDLSSLEETVRKVAEFEDEVIFRGCEKSGVKGLLSFEERKIECGSTPKDLLEAIVRALSIFSKDGIEGPYTLVINTDRWINFLKEEAGHYPLEKRVEECLRGGKIITTPRIEDALVVSERGGDFKLILGQDLSIGYEDREKDAVRLFITETFTFQVVNPEALILLKF
Consider B1, for which the binding result is given as “binds”.
